Test results from paper PMC7954794, “Protein context shapes the specificity of SH3 domain-mediated interactions in vivo” (Nature Communications, 2021).

System: growth of yeast strains under 51 stress conditions
Assay: Growth assays in 51 stress conditions (Fig. 1E-F, S2D, S5B)
Assay type: cell-based, Saccharomyces cerevisiae
Parameters: key to Growth (Fig. S2D) / growth of ABP1 SH3-swapped strains in stress condition: log2 colony size, average of median per strain (growth score)
Settings: ABP1 SH3-swapped strains
Procedure: All WT, SH3-deleted, KO (except for CDC25 which is the only essential SH3-containing gene in yeast), ABP1 SH3-swapped, and SLA1 SH3-shuffled strains were grown on omnitrays in 1536 formats and robotically manipulated with a pin tool (the DHFR F[1,2] bait strains were used except for the KO strains). Each strain was randomly positioned in 6 replicates per plate and two plates per condition were performed, for 12 replicates per strain in total. A border of two rows and two columns of WT strains (BY4741) around the plate was used to remove border effects. Strains were grown on YPD media for two days at 30 °C. They were then replicated on 51 different media that are described in the Supplementary Table 3 and were incubated at 37 °C in a spImager custom platform with images acquired every two hours for four days. The colony sizes from plate pictures were also measured with the R package “Gitter” and the output was manually inspected. Positions with an abnormality in colony circularity were removed. The colony sizes after 74 h of incubation at 37 °C were log2 transformed and used for the analyses. First, the differences between the two plate replicates were corrected to remove plate effects. The median colony size was calculated for each strain per plate. Strains with a difference in their median colony size of more than two between the two plate replicates were removed. Finally, the average of the median colony size was calculated for each strain per condition (growth score).

B1: ABP1 WT (protein, UniProt P15891 2-592, looked up)
Actin-binding protein: ALEPIDYTTHSREIDAEYLKIVRGSDPDTTWLIISPNAKKEYEPESTGSSFHDFLQLFDETKVQYGLARVSPPGSDVEKIIIIGWCPDSAPLKTRASFAANFAAVANNLFKGYHVQVTARDEDDLDENELLMKISNAAGARYSIQTSSKQQGKASTPPVKKSFTPSKSPAPVSKKEPVKTPSPAPAAKISSRVNDNNDDDDWNEPELKERDFDQAPLKPNQSSYKPIGKIDLQKVIAEEKAKEDPRLVQKPTAAGSKIDPSSDIANLKNESKLKRDSEFNSFLGTTKPPSMTESSLKNDDDKVIKGFRNEKSPAQLWAERKAKQNSGNAETKAEAPKPEVPEDEPEGEPDVKDLKSKFEGLAASEKEEEEMENKFAPPPKKSEPTIISPKPFSKPQEPVKAEEAEQPKTDYKKIGNPLPGMHIEADNEEEPEENDDDWDDDEDEAAQPPLPSRNVASGAPVQKEEPEQEEIAPSLPSRNSIPAPKQEEAPEQAPEEEIEEEAEEAAPQLPSRSSAAPPPPPRRATPEKKPKENPWATAEYDYDAAEDNELTFVENDKIINIEFVDDDWWLGELEKDGSKGLFPSNYVSLGN
Growth (Fig. S2D) (Bathophenanthroline.0.1uM): 10.7779 | Growth (Fig. S2D) (Bathophenanthroline.10uM): 10.6544 | Growth (Fig. S2D) (Bathophenanthroline.1uM): 10.7233 | Growth (Fig. S2D) (CaCl2.100mM): 10.745 | Growth (Fig. S2D) (CaCl2.250mM): 10.6724 | Growth (Fig. S2D) (CaCl2.500mM): 10.224 | Growth (Fig. S2D) (Caffein.10mM): 9.987 | Growth (Fig. S2D) (Caffein.2mM): 10.9881 | Growth (Fig. S2D) (CdCl2.100uM): 9.742 | Growth (Fig. S2D) (CdCl2.10uM): 10.8471 | Growth (Fig. S2D) (CdCl2.50uM): 10.1808 | Growth (Fig. S2D) (CuSO4.1mM): 10.5746 | Growth (Fig. S2D) (CuSO4.5mM): 8.442 | Growth (Fig. S2D) (Cycloheximide.0.05.uM): 11.0561 | Growth (Fig. S2D) (Cycloheximide.0.2.uM): 10.6665 | Growth (Fig. S2D) (Cycloheximide.0.5.uM): 10.4823 | Growth (Fig. S2D) (DMSO.2.): 10.9822 | Growth (Fig. S2D) (DMSO.6.): 9.9755 | Growth (Fig. S2D) (DMSO.8.): 9.381 | Growth (Fig. S2D) (Ethanol.2.): 10.76 | Growth (Fig. S2D) (Ethanol.6.): 10.427 | Growth (Fig. S2D) (Ethanol.8.): 10.4864 | Growth (Fig. S2D) (Galactose.2.): 10.7856 | Growth (Fig. S2D) (Glycerol.2.): 10.3292 | Growth (Fig. S2D) (Hydroxyurea.25mM): 10.7632 | Growth (Fig. S2D) (Hygromycin.190uM): 10.9263 | Growth (Fig. S2D) (Hygromycin.19uM): 10.9545 | Growth (Fig. S2D) (Hygromycin.95uM): 10.9494 | Growth (Fig. S2D) (MMS.0.004.): 10.9625 | Growth (Fig. S2D) (MMS.0.02.): 10.8338 | Growth (Fig. S2D) (MMS.0.04.): 10.264 | Growth (Fig. S2D) (Menadione.100uM): 10.4792 | Growth (Fig. S2D) (Menadione.200uM): 10.398 | Growth (Fig. S2D) (Menadione.50uM): 10.8403 | Growth (Fig. S2D) (NaCl.0.25M): 10.7336 | Growth (Fig. S2D) (NaCl.1M): 10.1964 | Growth (Fig. S2D) (Nitroquinoline.10uM): 10.6457 | Growth (Fig. S2D) (Nitroquinoline.50uM): 10.6448 | Growth (Fig. S2D) (Nystatin.0.01uM): 10.9455 | Growth (Fig. S2D) (Nystatin.0.1uM): 11.0177 | Growth (Fig. S2D) (Raffinose.2.): 10.9059 | Growth (Fig. S2D) (Rapamycin.10nM): 9.962 | Growth (Fig. S2D) (Rapamycin.50nM): 9.216 | Growth (Fig. S2D) (SC.pH3): 10.4509 | Growth (Fig. S2D) (SC.pH6): 10.9947 | Growth (Fig. S2D) (SDS.0.01.): 10.9398 | Growth (Fig. S2D) (SDS.0.02.): 10.9447 | Growth (Fig. S2D) (SDS.0.05.): 10.807 | Growth (Fig. S2D) (Sorbitol.10mM): 10.9819 | Growth (Fig. S2D) (Sorbitol.1mM): 10.9741 | Growth (Fig. S2D) (Sorbitol.5mM): 10.8941
